We go through one substance from patent publication US20180127478A1.

This assay concerns the target GH receptor (on Nb2 cells). Description: cell-based or functional assay.

With “commercial recombinant hGH (Somatropin, United States Pharmacopeia) (from UniProt P01241 27-217) (ligand)”, the Nb2 cell proliferation, EC50 came to 166 pM.
